The chains are these.
B1: LINE1-full (parent)
chain: UACGUAGGUGGUUUUCCCCUGAUAGUGCUAAGGGGGCCUGGAAGUUUGGACUGGGCAGAGCUCAACACAGCGUGGCAAAGUGGCUGUGGCUAGACUGCCUCUCUGGAUUCCUCGUCACUCAGCAGGGCAUCUCUGAGAGAAAUGCC

In the data set the parent is B1. As to the kind of experiment: self-cleavage, relative activity (ratio to wild type); higher = more cleavage; in vitro, sequencing; the parent is a self-cleaving ribozyme.
For the variant A2U U143C, the self-cleavage worked out at 1.28.
To A2G C3U belongs 0.65; to A2G A117G, 0.3; to A2G U102G, 0.
To U1A U26C belongs 1.93; to U1C G34A, 0.75.
Consider U1C G4U, for which the self-cleavage is 0.78.
Regarding A2C U73A, the self-cleavage was determined as 1.29.
To A2U A65U belongs 0.23; to A2C U85G, 0.16; to U1A C61U, 0.08.
To C3U A136G belongs 1.08.
Turning to A2C U5C, the self-cleavage is 1.12.
Regarding U1A U108C, the self-cleavage turned out to be 0.77.
U1C A22U: the self-cleavage came out at 0.54.
For U1C A22G, the self-cleavage came out at 0.84.
U1G A42U: the self-cleavage came out at 0.28.
With A2G U130A the figure was 1.72; with A2G U46C, 0.72.
Consider A2G U46A, for which the self-cleavage was determined as 0.3.
With U1C U26A the figure was 0.53; with U1C U12C, 0.78.
With U1C U12G the figure was 0.84; with A2G U29G, 1.09; with A2G U29A, 1.14.
With U1C U47A the figure was 0.6; with U1C U47C, 0.97.
With C3A A142G, the self-cleavage was 0.82.
To A2U G11A belongs 0.92; to A2C A142G, 1.78.
To U1A U112C belongs 1.03; to C3U A30G, 1.75.
On to A2G G144A, for which the self-cleavage was 0.86.
For U1C G82A, the self-cleavage turned out to be 1.3.
To U1C A136U belongs 1.15.
With U1A A129C the figure was 2.51.
To A2G G89A belongs 0.11; to U1A, 1.17; to U1C, 0.86.
On to U1G, for which the self-cleavage is 0.87.
For the variant U1C G36C, the self-cleavage was determined as 1.26.
Regarding A2U A129G, the self-cleavage is 0.72.
For the variant U1C G83A, the self-cleavage stood at 0.74.
Regarding U1G U52C, the self-cleavage turned out to be 2.63.
Take A2G A141U: the self-cleavage came out at 0.24.
To A2G A22G belongs 0.97; to A2G A22U, 0.19.
With U1C A57G the figure was 0.56.
With U1C U29C the figure was 1.1; with A2C U14A, 1.16; with U1C C56U, 0.07.
On to A2G C71G, for which the self-cleavage was found to be 0.42.
Take A2G U104C: the self-cleavage came to 0.84.
With U1A U23C the figure was 2.04; with U1C U52A, 0.88.
With C3U A43G the figure was 0.95.
Regarding A2U A57G, the self-cleavage stood at 0.6.
On to A2U A57C, for which the self-cleavage was 0.16.
To U1G A30G belongs 0.61.
A2G U45C: the self-cleavage was 1.19.
For A2U A92U, the self-cleavage was 0.32.
With A2G G34C the figure was 0.75; with C3G A30U, 0.91.
As to U1A G11A, the self-cleavage was 1.76.
On to A2C U130C, for which the self-cleavage was 1.19.
To U1G A64G belongs 0.46; to A2U C111A, 0.68; to A2G U73A, 0.95.
With U1C U15C the figure was 0.92; with A2G U112A, 0.09; with A2G U112G, 0.77.
On to A2U C113A, for which the self-cleavage was 0.63.
For the variant A2G U12C, the self-cleavage was found to be 0.96.
With A2U G122A the figure was 0.79.
To A2G G32A belongs 0; to C3U A67C, 0.12; to C3U A67U, 0.15.
In the case of A2G U134C, the self-cleavage worked out at 1.35.
As to A2G U134G, the self-cleavage worked out at 1.21.
With U1C A65G the figure was 0.07; with U1C A65U, 0.06.
Take A2G A65U: the self-cleavage came to 0.66.
As to A2G A65G, the self-cleavage was found to be 0.2.
Consider U1C U20A, for which the self-cleavage worked out at 0.88.
With A2C G93A the figure was 0.03; with U1A U143A, 1.04.
To U1C C38A belongs 0.55; to U1C C38U, 0.71.
A2U A30G: the self-cleavage came out at 1.2.
With A2U U85A the figure was 0.04; with U1A U91A, 1.27.
In the case of U1A U91C, the self-cleavage was found to be 0.15.
To A2U U12C belongs 0.64; to U1C U81C, 0.85.
To U1C U81G belongs 1.01; to A2G A136U, 0.77.
As for C3A U112C, the self-cleavage stood at 1.48.
Consider A2G A140C, for which the self-cleavage worked out at 0.51.
On to A2G A6U, for which the self-cleavage is 0.53.
Regarding A2G A124G, the self-cleavage stood at 0.74.
To A2G A124U belongs 0.88; to U1A A117U, 1.48.
To U1C A2G belongs 0.72; to A2G A57U, 0.38; to A2U A50G, 0.53.
Take U1C U91C: the self-cleavage was found to be 0.39.
As for C3U A94G, the self-cleavage was found to be 0.54.
To U1A A24U belongs 1.28.
To U1C U100C belongs 1.2; to A2G U20C, 0.74; to A2G U20A, 0.37.
With U1C G7A the figure was 0.7; with U1C C19U, 0.66.
In the case of U1C U143C, the self-cleavage worked out at 1.18.
With A2G G72A the figure was 1.15; with A2G G72U, 0.53; with U1A G25C, 1.2.
To A2G G4U belongs 0.4; to A2U U46A, 0.51.
As for A2G G44U, the self-cleavage was determined as 0.87.
Take A2U A142G: the self-cleavage came to 1.15.
Regarding A2U U47C, the self-cleavage came to 0.43.
With U1C G125A the figure was 1.34.
Take C3U A42G: the self-cleavage was 1.22.
As for U1C U102A, the self-cleavage turned out to be 0.25.
With A2G U15C the figure was 0.89; with A2G U15A, 1; with A2G U39C, 0.32.
To U1A A107G belongs 1.67; to A2U A107G, 1; to A2U A107U, 0.52.
As to C3U A69U, the self-cleavage was 0.13.
For A2G A142G, the self-cleavage turned out to be 0.93.
To A2G A142U belongs 1.12; to C3A G70A, 0.08; to U1C U62A, 0.05.
Regarding U1C U62C, the self-cleavage turned out to be 0.12.
To U1A G127C belongs 1.51.
On to C3U A59G, for which the self-cleavage was found to be 0.1.
As to A2G G106U, the self-cleavage is 1.04.
To C3A U45G belongs 0.45; to C3U A121U, 1.41; to A2G A94G, 0.25.
As to A2G A94U, the self-cleavage came out at 0.29.
As to U1C A142G, the self-cleavage was found to be 0.99.
For the variant A2U U112C, the self-cleavage is 1.4.
With U1G C37G the figure was 0.49; with A2C G4U, 1.34; with A2G U81A, 0.74.
For A2U U15C, the self-cleavage came to 1.19.
To C3U C113A belongs 1.15; to A2G A64G, 0.39; to A2G A64C, 0.59.
To A2G A64U belongs 0.88; to U1C C99U, 0.24.
In the case of U1C U108C, the self-cleavage stood at 0.67.
To C3U C111U belongs 0.65; to U1C A94G, 0.24.
To A2U U132C belongs 1.09; to C3A A140U, 0.9; to U1A U85G, 0.12.
As to A2U A42U, the self-cleavage was found to be 0.47.
On to U1C A129G, for which the self-cleavage came out at 1.38.
For the variant U1C G86A, the self-cleavage stood at 0.06.
To C3G A57U belongs 0; to A2G U115A, 1.08.
With U1A A138G the figure was 1.05.

(Values after the RNAGym collection of RNA variant scans (doi:10.7554/elife.90254).)
